T1: ZA domain of ASAP1 (Arf GAP and ankyrin repeat domains), [431–724]ASAP1 (UniProt Q9QWY8 431-724)
T1 construct: Isotopically labelled for the PRE experiment; also called ΔPHZA; isolated ZA domain
T1 sequence (looked up): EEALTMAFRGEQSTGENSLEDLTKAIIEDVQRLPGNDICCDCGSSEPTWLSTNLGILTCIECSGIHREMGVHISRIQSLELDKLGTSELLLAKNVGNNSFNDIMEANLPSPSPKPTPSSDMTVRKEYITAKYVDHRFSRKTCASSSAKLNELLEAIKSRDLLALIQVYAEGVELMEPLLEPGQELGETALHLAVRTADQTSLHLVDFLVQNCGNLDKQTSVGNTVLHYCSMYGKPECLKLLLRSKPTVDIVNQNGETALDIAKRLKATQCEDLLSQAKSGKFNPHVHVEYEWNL


Experiments:
[1] = biological target: T2, myristoylated human Arf1 (myrArf1), GTP-bound form at a membrane surface (human, UniProt P84077 1-181, N-myristoylated); assay: cell-based or functional assay
[2] = biological target: T2, myristoylated human Arf1 (myrArf1), …; assay: other fluorescence titration + other: inhibition of GAP activity; PH domain titrated; (i) rate of mant-GTP dissociation from myrArf1 on LUVs with 5 mol% PI(4,5)P2, followed by FRET from Arf tryptophan to mant-GTP, excess GTP 160 μM; (ii) IC50 of PH domain for GAP activity of 1 nM wt PZA on myrArf1·GTP below the Km; both served as proxies for the affinity; conditions: both partners purified
[3] = biological target: T1, ZA domain of ASAP1 (Arf GAP and ankyrin …); assay: NMR intermolecular paramagnetic relaxation enhancement (PRE); Cys159-MTSL myrArf1 with a non-hydrolysable GTP analog on nanodiscs, alone or in complex with wt PH (100 μM), and 100 μM isotopically labeled isolated ZA domain; conditions: both partners purified

T2 sequence (P84077 whole entry, the tested form may be a part): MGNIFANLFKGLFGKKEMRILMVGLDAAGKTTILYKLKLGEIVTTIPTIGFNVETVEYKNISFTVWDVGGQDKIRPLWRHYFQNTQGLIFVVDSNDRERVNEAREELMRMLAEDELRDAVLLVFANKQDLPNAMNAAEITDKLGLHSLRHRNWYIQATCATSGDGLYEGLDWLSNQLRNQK

| Binder | 'in trans' stimulation of GTP hydrolysis by ZA on myrArf1 (LUVs), relative to wt PH [1] | affinity relative to wt PH [2] | Kd [3] [µM] |
| --- | --- | --- | --- |
| ΔN14 ASAP1 PH domain, [339–451]ASAP1 (domain or fragment, UniProt Q9QWY8 339-451, looked up, ASAP1 residues 339-451: PH domain without residues 325-338 (the first 14 residues of the wt PH construct); also called ΔN14PH; source: E. coli BL21 Star (DE3) (pET3a) or BL21 (DE3) (pET21), purified (HiTrap SP HP, SEC)) GSEKKGFLLKKSDGIRKVWQRRKCAVKNGILTISHATSNRQPAKLNLLTCQVKPNAEDKKSFDLISHNRTYHFQAEDEQDYIAWISVLTNSKEEALTMAFRGEQSTGENSLED | 0.01 fold of wt PH | ~0.5 fold of wt PH |  |
| Cys159-MTSL tagged myrArf1 (natural protein, N-myristoylated; MTSL nitroxide spin label on the native Cys159, also called Arf (in the ZA PRE experiment); source: E. coli, co-expressed with yeast NMT, purified; spin-labelled with MTSL) not shown |  |  | 100 to 1000 |
